Here are results for 5 molecules from patent US20180273632A1 (BIOCEROX PRODUCTS B V, published 2018).

Assay [1] deals with T1, human CD134 (full-length, on cells) (human, UniProt P43489 29-277).
T1 construct: also called OX40; TNFRSF4
T1 sequence: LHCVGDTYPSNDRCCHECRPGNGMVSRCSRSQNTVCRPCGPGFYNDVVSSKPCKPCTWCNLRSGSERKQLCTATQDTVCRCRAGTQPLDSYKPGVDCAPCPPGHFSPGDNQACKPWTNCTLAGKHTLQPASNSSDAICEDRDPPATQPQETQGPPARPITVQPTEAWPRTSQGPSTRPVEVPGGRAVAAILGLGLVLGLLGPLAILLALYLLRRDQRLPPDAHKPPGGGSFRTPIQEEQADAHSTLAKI
The experiment in a line: flow cytometry, PHA-stimulated human T lymphocytes. A general note: Flow cytometry measures light scatter and fluorescence of single cells or particles in a stream.

In assay [2] the target is T1, human CD134 (full-length, on cells). The experiment in a line: flow cytometry, PHA-stimulated human T lymphocytes, two donors. The method, then:
PHA-stimulated (at 10 μg/mL for 2 days; see above) human CD134 expressing T lymphocytes were generated. Cells were harvested and put at 1-2×10⁶ cells/mL in ice chilled PBS/BSA/NaN₃ supplemented with 10% HPS (blocking Fcγ receptors; BioWhittaker). […] After extensive washing in PBS/BSA/NaN₃, cells were subsequently incubated with 1:200 diluted PE-conjugated goat anti-mouse IgG antibodies (Jackson ImmunoResearch) for 30 minutes at 4° C. […] After extensive washing in PBS/BSA/NaN₃, cells were fixed in 2% formaldehyde in PBS/BSA/NaN₃ for 30 minutes at 4° C.

Assay [3] has the same target. The experiment in a line: flow cytometry, PHA-stimulated human CD4 positive T lymphocytes. As for the experimental part: PHA-stimulated (at 10 μg/mL for 1 day; see above) human CD134 expressing T lymphocytes were generated. Cells were harvested and put at 1-2×10⁶ cells/mL in ice-chilled PBS/BSA/NaN3. […] After extensive washing in PBS/BSA/NaN₃, cells were subsequently incubated with 1:50 diluted FITC-conjugated mouse anti-human IgG4 antibodies (Sigma) for 30 minutes at 4° C. […] After extensive washing in PBS/BSA/NaN₃, cells were fixed in 2% formaldehyde in PBS/BSA/NaN₃ for 30 minutes at 4° C.

The target in assay [4] is T2, human fibronectin-derived control peptide (extra type III structural domain) (human).
T2 construct: Synthesized by Pepscan Presto; coated on ELISA plates at 10 ng/well; also called ED1 peptide
T2 peptide: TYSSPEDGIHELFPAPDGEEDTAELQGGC
As to the kind of experiment: ELISA, plate coated with 10 ng/well control peptide, HRP goat anti-mouse IgG Fcγ, n=1. As for the experimental part:
(§1) Ninety six-wells flat-bottom ELISA plates (Corning) were coated with 10 ng/well human CD134-derived peptide (synthesized by Pepscan Presto, Lelystad, The Netherlands), which corresponded to amino acid sequence of truncated CRD3 A1-module-CRD4 subdomain A1-module (see SEQ ID NO. 38) or with 10 ng/well human fibronectin-derived control peptide (synthesized by Pepscan Presto, Lelystad, The Netherlands), which corresponded to amino acid sequence of extra type III structural domain (see SEQ ID NO. 37) in PBS o/n at 4° C. After extensive washing in PBS/0.05% Tween 20, plates were blocked in PBS/0.05% Tween 20/1% BSA fraction V (Roche) for 1 hour at RT. […] After extensive washing in PBS/0.05% Tween 20, binding of antibodies was determined with 1:5000 diluted horseradish peroxidase-conjugated goat anti-mouse IgG Fcγ-specific antibodies (Jackson ImmunoResearch) for 1 hour at RT, followed by a ready-to-use solution of TMB substrate (lnvitrogen) for colorimetric detection. After adding 1 M H₂SO₄, optical densities was measured at a wavelength of 450 nm (reference wavelength of 655 nm) using a microplate reader (BioRad).

The target in assay [5] is T3, 'truncated (tc) CRD4' construct of human CD134 (amino acids 147-277 linked to signal peptide amino acids 1-28) (human, UniProt P43489 147-277).
T3 construct: also called truncated CRD4
T3 sequence: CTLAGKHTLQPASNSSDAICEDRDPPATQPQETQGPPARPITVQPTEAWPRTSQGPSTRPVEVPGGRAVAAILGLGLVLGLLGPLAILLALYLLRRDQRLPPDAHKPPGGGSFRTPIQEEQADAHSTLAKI
As to the kind of experiment: flow cytometry on 293-F cells transiently transfected with the construct, PE goat anti-mouse IgG (Fcγ) [cont.]. As for the experimental part: After 48-72 h, surface human CD134 expression on transfected cells was analyzed by FACS analysis. To this end, transfected cells were harvested and put at 1-2×10⁶ cells/mL in ice-chilled PBS/BSA/NaN₃. […] After extensive washing in PBS/BSA/NaN₃, cells were subsequently incubated with 1:200 diluted PE-conjugated goat anti-mouse IgG (Fcγ specific) antibodies (Jackson ImmunoResearch) for 30 minutes at 4° C. After extensive washing in PBS/BSA/NaN₃, cells were fixed in 2% formaldehyde in PBS/BSA/NaN₃ for 30 minutes at 4° C.

Assay [6] deals with T4, human CD134-derived peptide (truncated CRD3 A1-module-CRD4 subdomain A1-module, amino acids 108-146) (human).
T4 construct: Synthesized by Pepscan Presto; coated on ELISA plates at 10 ng/well
T4 peptide: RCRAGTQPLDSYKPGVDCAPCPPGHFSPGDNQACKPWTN
As to the kind of experiment: ELISA, plate coated with 10 ng/well huCD134 peptide, HRP goat anti-mouse IgG Fcγ, n=1. As for the experimental part: as §1
For orientation: In an ELISA, binding on a coated surface is turned into a signal by an enzyme label.

Assay [7] has as its target T4, human CD134-derived peptide (truncated …). The experiment in a line: ELISA, plate coated with 10 ng/well huCD134 peptide, HRP goat anti-human IgG Fcγ, n=1. As for the experimental part:
as §1, with “anti-human” for “anti-mouse”, “(invitrogen)” for “(lnvitrogen)”

Assay [8] deals with T2, human fibronectin-derived control …. As to the kind of experiment: ELISA, plate coated with 10 ng/well control peptide, HRP goat anti-human IgG Fcγ, n=1. As for the experimental part: as §1, with “anti-human” for “anti-mouse”, “(invitrogen)” for “(lnvitrogen)”
Assay [9] concerns the target T3, 'truncated (tc) CRD4' construct of …. The experiment in a line: flow cytometry on 293-F cells transiently transfected with the construct, PE goat anti-human IgG (Fcγ) [cont.]. As for the experimental part: After 48-72 h, surface human CD134 expression on transfected cells was analyzed by FACS analysis. To this end, transfected cells were harvested and put at 1-2×10⁶ cells/mL in ice-chilled PBS/BSA/NaN3. […] After extensive washing in PBS/BSA/NaN₃, cells were subsequently incubated with 1:200 diluted PE-conjugated goat anti-human IgG (Fcγ specific) antibodies (Jackson ImmunoResearch) for 30 minutes at 4° C. After extensive washing in PBS/BSA/NaN₃, cells were fixed in 2% formaldehyde in PBS/BSA/NaN₃ for 30 minutes at 4° C.

By EC50 is commonly meant the concentration at which the effect is half-maximal.

In the case of “commercially available mouse anti-human CD134 antibody clone ACT35 (BD Biosciences)”, in assay [1], the saturating concentration was determined as 5 µg/mL. The EC50 in assay [2] was determined as 2.5 µg/mL.

B1: mouse anti-human CD134 monoclonal antibody clone 20E5 (antibody, mouse IgG1, V domains shown)
VH: EVQLQQSGPELVKPGASVKMSCKASGYTFTSYVMHWVKQKPGQGLEWIGYINPYNDGTKYNEKFKGKATLTSDKSSSTAYMELSSLTSEDSAVYYCANYYGSSLSMDYWGQGTSVTVSS
VL: DIQMTQTTSSLSASLGDRVTISCRASQDISNYLNWYQQKPDGTVKLLIYYTSRLHSGVPSRFSGSGSGTDYSLTISNLEQEDIATYFCQQGNTLPWTFGGGTKLEIKR
notes: also called m20E5
Take B1: the EC50 in assay [2] was determined as 2.5 µg/mL.

B2: chimeric human IgG4κ anti-human CD134 antibody clone 20E5 (antibody, V domains shown)
VH: EVQLQQSGPELVKPGASVKMSCKASGYTFTSYVMHWVKQKPGQGLEWIGYINPYNDGTKYNEKFKGKATLTSDKSSSTAYMELSSLTSEDSAVYYCANYYGSSLSMDYWGQGTSVTVSS
VL: DIQMTQTTSSLSASLGDRVTISCRASQDISNYLNWYQQKPDGTVKLLIYYTSRLHSGVPSRFSGSGSGTDYSLTISNLEQEDIATYFCQQGNTLPWTFGGGTKLEIKR
notes: also called hu20E5
For the molecule B2, in [3], the EC50 is ~1 µg/mL.

B3: mouse anti-human CD134 monoclonal antibody clone 12H3 (antibody, mouse IgG1, V domains shown)
VH: EVQLQQSGPELVKPGASVKISCKTSGYTFKDYTMHWVKQSHGKSLEWIGGIYPNNGGSTYNQNFKDKATLTVDKSSSTAYMEFRSLTSEDSAVYYCARMGYHGPHLDFDVWGAGTTVTVSP
VL: DIVMTQSHKFMSTSLGDRVSITCKASQDVGAAVAWYQQKPGQSPKLLIYWASTRHTGVPDRFTGGGSGTDFTLTISNVQSEDLTDYFCQQYINYPLTFGGGTKLEIKR
notes: also called m12H3
With B3, the binding result in [4] was “no binding (tested: 50 µg/mL)”; in [5], “no binding (tested: 20.0 µg/mL)”; in [6] it was “binds”. Further, the EC50 in assay [2] came out at 0.5 µg/mL.

B4: chimeric human IgG4κ anti-human CD134 monoclonal antibody clone 12H3 (antibody, V domains shown)
VH: EVQLQQSGPELVKPGASVKISCKTSGYTFKDYTMHWVKQSHGKSLEWIGGIYPNNGGSTYNQNFKDKATLTVDKSSSTAYMEFRSLTSEDSAVYYCARMGYHGPHLDFDVWGAGTTVTVSP
VL: DIVMTQSHKFMSTSLGDRVSITCKASQDVGAAVAWYQQKPGQSPKLLIYWASTRHTGVPDRFTGGGSGTDFTLTISNVQSEDLTDYFCQQYINYPLTFGGGTKLEIKR
Turning to B4, the binding result in [7] is “binds”; in [8] it was “no binding (tested: 50 µg/mL)”; in [9] it was “no binding (tested: 20.0 µg/mL)”.
